The experiment deals with T1, HLA-A*01:01 (human).
T1 construct: MHC class I monomer first loaded with a UV-sensitive peptide (not identified) that is cleaved by UV irradiation and exchanged for the tested peptide; captured on streptavidin plates, detected with anti-β2m; also called peptide-receptive MHC molecules
In words: UV-ligand exchange, anti-b2m ELISA. The text has this: Candidate peptides for T cell based therapies according to the present invention were further tested for their MHC binding capacity (affinity). The individual peptide-MHC complexes were produced by UV-ligand exchange, where a UV-sensitive peptide is cleaved upon UV-irradiation and exchanged with the peptide of interest as analyzed. Only peptide candidates that can effectively bind and stabilize the peptide-receptive MHC molecules prevent dissociation of the MHC complexes. To determine the yield of the exchange reaction, an ELISA was performed based on the detection of the light chain (β2m) of stabilized MHC complexes. The assay was performed as generally described in Rodenko et al. (Rodenko et al., 2006)
96 well MAXISorp plates (NUNC) were coated over night with 2 ug/ml streptavidin in PBS at room temperature, washed 4× and blocked for 1 h at 37° C. in 2% BSA containing blocking buffer. Refolded HLA-A*02:01/MLA-001 monomers served as standards, covering the range of 15-500 ng/ml. Peptide-MHC monomers of the UV-exchange reaction were diluted 100-fold in blocking buffer. Samples were incubated for 1 h at 37° C., washed four times, incubated with 2 ug/ml HRP conjugated anti-β2m for 1 h at 37° C., washed again and detected with TMB solution that is stopped with […]. Absorption was measured at 450 nm.
The molecule YEVDTKLLSL returned a peptide exchange yield of 20 to 50%.

As for KIRAEVLSHY, the peptide exchange yield was in the range of 20 to 50%.

STALSILLL returned a peptide exchange yield of 20 to 50%.

On to YHRICELLSDY, for which the peptide exchange yield is above 75%.

In the case of RAVQPGETY, the peptide exchange yield lay in the range of 50 to 75%.

For AQVQDTGRY, the peptide exchange yield lay within 50 to 75%.

IADNPQLSFY: the peptide exchange yield is above 75%.

Consider YLDSSKPAVY, for which the peptide exchange yield was 50 to 75%.

In turn, EAAPDIMHY came in with a peptide exchange yield of 20 to 50%.

FTTLSDLQTNMA came in with a peptide exchange yield of 20 to 50%.

GTKQWVHARY: the peptide exchange yield was 10 to 20%.

Consider VSVYNSYPY, for which the peptide exchange yield fell in the range of 20 to 50%.

VQPGETYTY yielded a peptide exchange yield of 50 to 75%.

YLEDRPLSQ: the peptide exchange yield lay in the range of 20 to 50%.

SIEVFTHY showed a peptide exchange yield of 50 to 75%.

Molecule GLIEVVTGY displayed a peptide exchange yield above 75%.

EVTDRNMLAF came in with a peptide exchange yield of 50 to 75%.

Molecule TVDNANILL came in with a peptide exchange yield of 20 to 50%.

In turn, HSIEVFTHY yielded a peptide exchange yield of 20 to 50%.

Molecule HTMEVTVY displayed a peptide exchange yield of 50 to 75%.

In turn, NSDISIPEY registered a peptide exchange yield of 50 to 75%.

With RQAPGPARDY, the peptide exchange yield was 20 to 50%.

Consider ITDFGLAKL, for which the peptide exchange yield was 20 to 50%.

On to KLAGTVFQY, for which the peptide exchange yield lay within 20 to 50%.

The molecule EVLGEEMYAY came in with a peptide exchange yield of 20 to 50%.

Molecule PIMSSSQALY yielded a peptide exchange yield of 20 to 50%.

VQIAKGMNY gave a peptide exchange yield of 50 to 75%.

Source of the values: US20200087364A1 (IMMATICS BIOTECHNOLOGIES, published 2020).
